“And” between values parts separate entries of the source, which are not always exact repeats. Equal entries are not always repeated.
Columns and labels:
[1] = target: T1, LHRH-R (Homo sapiens, UniProt P30968); test: Duolink proximity ligation assay (PLA) in MDA-MB-231; format: binding
T1 construct: endogenous in cells; host or cells: MDA-MB-231
T1 sequence (P30968 1-328): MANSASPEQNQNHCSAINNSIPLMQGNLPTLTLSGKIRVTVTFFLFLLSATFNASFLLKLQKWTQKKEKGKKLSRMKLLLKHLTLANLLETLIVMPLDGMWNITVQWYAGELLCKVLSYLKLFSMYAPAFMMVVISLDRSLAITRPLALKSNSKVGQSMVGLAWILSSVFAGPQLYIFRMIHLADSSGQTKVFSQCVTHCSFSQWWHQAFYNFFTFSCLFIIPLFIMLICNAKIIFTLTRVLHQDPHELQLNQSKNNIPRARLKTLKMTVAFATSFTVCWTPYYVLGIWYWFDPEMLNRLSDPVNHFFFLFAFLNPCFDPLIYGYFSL
Protocol: FIG. 6: Proximity ligation assay was used to show the protein-protein interaction between LHRH-R and LHRH in MDA-MB-231 (TNBC cell model) treated with LD5-me-vc-PABC-MMAE (1 μM) compared to negative control (PBS). Stained nucleus (DAPI blue) and PLA signal (TexasRed) were detected by LEICA SPE2 confocal LSM.
The binding affinity of the LD5-me-vc-PABC-MMAE conjugate to LHRH receptors was investigated by DuoLink assay.
Proximity ligation assay (PLA) was used to determine the interaction between LHRH-R and LHRH in LD5-mc-vc-PABC-MMAE treated cells. Duolink® Proximity Ligation Assay (PLA) allows in situ detection of endogenous proteins, protein modifications, and protein interactions with high specificity and sensitivity. Protein targets can be readily detected and localized with single molecule resolution in unmodified cells and tissues. Typically, two primary antibodies raised in different species are used to detect two unique protein targets. PLA reagents were added to the fixed MDA-MB-231 cells after incubating these cells with the primary antibody specific for LHRH-R and LHRH.

[2] = In vitro metabolic stability (release of free MMAE, LC/MS), human plasma; format: in vitro ADME; conditions: 1 μM, 37° C., 10 days
Protocol: (§1) FIG. 11: Stability of LHRHD-(mc-vc-PABC)-MMAE (i.e. LD5-mc-vc-PABC-MMAE) in human plasma, mouse plasma, and cell culture media (c-media). The stability was measured based on the presence of free MMAE detected in the samples by LC-MS at each time point relative to time 0. Error Bars are standard deviations (STDV), p>0.05 and n=9 (mean is calculated from samples in triplicate in 3 independent experiments).
(§2) The metabolic stability of LD5-(mc-vc-PABC)-MMAE was investigated in cell culture media (c-media), human and mouse plasma. An LC/MS method was developed to detect both free MMAE and the presence of any degraded species from the whole construct, LD5-(mc-vc-PABC)-MMAE. To evaluate the stability of the valine-citrulline linkage, LD5-(mc-vc-PABC)-MMAE at 1 μM was incubated in c-media, human and mouse plasma at 37° C. for a period of 10 days. Aliquots were taken at pre-determined time intervals (t=0, 1, 2, 4, 7, 10 days) and analysed by LC/MS for the release of free MMAE.

[3] = test system: female NOD/SCID mice; test: Phase II: repeat-dose MTD in mice; format: in vivo; conditions: for Body Weight: listed as LHRHD-(mc-vc-PABC)-MMAE, 10 mg/kg
Protocol: (§3) LD-5-(mc-vc-PABC)-MMAE (10 mg/kg; determined by the results by Phase I) was administered IV once weekly on days 1 and 8 to groups of 3 female NOD/SCID mice (23±3 g). […] Body weights were recorded pre-dose and on days 1, 4, 8, 12 and 15. The animals were observed and mortality noted daily after first compound administration for 15 days. Gross necropsy was performed on all animals without tissue collection.
(§4) Therefore, the MTD was not reached at this dose. With the corresponding ADCs bearing MMAE the MTD has been considerably lower.

[4] = Phase II: repeat-dose MTD in mice; format: in vivo; conditions: mouse, in vivo; female NOD/SCID mice, IV; MTD not reached at 10 mg/kg
Protocol: as §3, §4

[5] = In vitro stability (release of free MMAE, LC/MS), cell culture media; format: in vitro ADME; conditions: c-media, 1 μM, 37° C., 10 days
Protocol: as §1, §2

[6] = test system: female NOD/SCID mice; test: Phase I: single-dose MTD in mice; format: in vivo; conditions: IV 10 mg/kg, 72 hr, individual animals, listed as LHRHD-(mc-vc-PABC)-MMAE
[7] = test system: α-tubulin polymerisation; test: α-tubulin immunostaining in TNBC and normal breast cells; format: cell-based; conditions: normal breast cells, 1 µM, 18 h
Protocol: FIGS. 8A and 8B: The effect of MMAE and LD5-me-vc-PABC-MMAE (LM) on α-tubulin polymerization. (A) MDA-MB-231 (TNBC cell model) and normal breast cells (HMEC and MCF-10A) were treated with free MMAE and LM at 1 μM and PBS (control) followed by immunostaining of α-tubulin with primary and secondary antibodies. The α-tubulin signals were detected by LEICA SPE2 confocal LSM. (B) The α-tubulin signal intensity was measured by Fiji J software in normal breast cells (HMEC and MCF-10A) and MDA-MB-231. ****p<0.0001 is the significance in the signal intensity in each cell line treated with PBS and LM in comparison to MMAE-treated cells. ####p<0.0001 is the significance of the α-tubulin signal intensity in MDA-MB-231 cells treated with LM in comparison to MCF-10A and HMEC cells. […] Statistical analysis was made in Prism by two-way ANOVA followed by Tukey's multiple comparisons test. Error bars are standard deviations (STDV), n=8 (3 independent repeats).
The intracellular effects of MMAE on α-tubulin polymerisation were examined using α-tubulin immunostaining in TNBC cells (MDA-MB-231) and normal breast cells (MCF-10A and HMEC) treated with MMAE and MMAE conjugated with LD5 (LD5-mc-vc-PABC-MMAE). TNBC cells and normal breast cells were fixed after incubating with […] of MMAE and LD5-mc-vc-PABC-MMAE for 18 h along with PBS as a control. […]

With `CCNC(=O)[C@@H]1CCCN1C(=O)[C@H](CCCNC(=N)N)NC(=O)[C@H](CC(C)C)NC(=O)[C@@H](CCCCNC1CC(=O)N(CCCCCC(=O)N[C@H](C(=O)N[C@@H](CCCNC(N)=O)C(=O)Nc2ccc(COC(=O)N(C)[C@H](C(=O)N[C@H](C(=O)N(C)[C@@H]([C@@H](C)CC)[C@@H](CC(=O)N3CCC[C@H]3[C@H](OC)[C@@H](C)C(=O)N[C@H](C)[C@@H](O)c3ccccc3)OC)C(C)C)C(C)C)cc2)C(C)C)C1=O)NC(=O)[C@H](Cc1ccc(O)cc1)NC(=O)[C@H](CO)NC(=O)[C@H](Cc1c[nH]c2ccccc12)NC(=O)[C@H](Cc1c[nH]cn1)NC(=O)[C@@H]1CCC(=O)N1` (stereo partly drawn) [LD5-mc-vc-PABC-MMAE] the “binding affinity to LHRH receptors (DuoLink assay)” value ([1]; MDA-MB-231, 1 μM) was “high binding affinity”, the “interaction between LHRH-R and LHRH (PLA signal)” value ([1]; fixed MDA-MB-231 cells, qualitative) was “confirmed interactions between LHRH-R and its ligand” and the “total drug released as MMAE” value [2] was “less than 3%”. For the same molecule, the “total drug released as MMAE” value ([2]; listed as LHRHD-(mc-vc-PABC)-MMAE) was “around 3%”, the “adverse effects (acute toxic symptoms, autonomic effects)” value ([3]; 10 mg/kg IV, after first and second administrations on Day 1 and 8) was “No marked adverse effects” and the “Mortality (death/test)” value ([3]; IV 10 mg/kg on days 1 and 8, Day 1) was 0/3. The “Body Weight” value ([3]; IV 10 mg/kg on days 1 and 8, Day 1, individual animals) was 22 g (2×) and 21 g, the “Mortality (death/test)” value ([3]; IV 10 mg/kg on days 1 and 8, Day 2) was 0/3 and the “Mortality (death/test)” value ([3]; IV 10 mg/kg on days 1 and 8, Day 3) was 0/3. For the same molecule, the “Mortality (death/test)” value ([3]; IV 10 mg/kg on days 1 and 8, Day 4) was 0/3, the “Body Weight” value ([3]; IV 10 mg/kg on days 1 and 8, Day 4, individual animals) was 23 g (2×) and 22 g and the “Mortality (death/test)” value ([3]; IV 10 mg/kg on days 1 and 8, Day 5) was 0/3. For the same molecule, the “Mortality (death/test)” value ([3]; IV 10 mg/kg on days 1 and 8, Day 6) was 0/3, the “Mortality (death/test)” value ([3]; IV 10 mg/kg on days 1 and 8, Day 7) was 0/3 and the “Mortality (death/test)” value ([3]; IV 10 mg/kg on days 1 and 8, Day 8) was 0/3. For the same molecule, the “Body Weight” value ([3]; IV 10 mg/kg on days 1 and 8, Day 8, individual animals) was 23 g (2×) and 22 g, the “Mortality (death/test)” value ([3]; IV 10 mg/kg on days 1 and 8, Day 9) was 0/3 and the “Mortality (death/test)” value ([3]; IV 10 mg/kg on days 1 and 8, Day 10) was 0/3. For the same molecule, the “Mortality (death/test)” value ([3]; IV 10 mg/kg on days 1 and 8, Day 11) was 0/3, the “Mortality (death/test)” value ([3]; IV 10 mg/kg on days 1 and 8, Day 12) was 0/3 and the “Body Weight” value ([3]; IV 10 mg/kg on days 1 and 8, Day 12, individual animals) was 24 g (2×) and 23 g. For the same molecule, the “Mortality (death/test)” value ([3]; IV 10 mg/kg on days 1 and 8, Day 13) was 0/3, the “Mortality (death/test)” value ([3]; IV 10 mg/kg on days 1 and 8, Day 14) was 0/3 and the “Mortality (death/test)” value ([3]; IV 10 mg/kg on days 1 and 8, Day 15) was 0/3. The “Body Weight” value ([3]; IV 10 mg/kg on days 1 and 8, Day 15, individual animals) was 25 g (2×) and 24 g, the gross necropsy ([3]; both phases) was “No abnormality was found” and the MTD [4] was > 10 mg/kg. The “total drug released as MMAE” value [5] was “less than 3%”, the “Body Weight” value [6] was 21 g and 20 g (2×) and the “α-tubulin signal compared to MMAE treatment” value [7] was “significantly higher”.
